Experimental data: the supplement of paper PMC9170038

Test system: MS2 coat protein
Experiment: apparent KD of MS2 coat protein; designed switch direction (-1 OFF switch, 1 ON switch): -1; higher = weaker reporter binding
Procedure, shortened: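 SNAP-549-labelled MS2 coat protein was titrated, doubling from 0.7 or 1.5 nM to 3 µM, over designed RNA switches transcribed on Illumina chips by stalled E. coli RNA polymerase. Runs were done without input, with 200 uM small-molecule ligand, or with an oligonucleotide input. Apparent KD is the per-design median over clusters of curve-fitted normalised fluorescence.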

[1] = input ligand: microRNA oligo, concentration not stated
[2] = Eterna round: R95, input ligand: FMN 200 uM
[3] = Eterna round: R95, input ligand: microRNA oligo, concentration not stated
[4] = Eterna round: R95, input ligand: none

Sequence | apparent KD of MS2 coat protein (input ligand: FMN 200 uM) | apparent KD of MS2 coat protein (input ligand: none) | apparent KD of MS2 coat protein [1] | apparent KD of MS2 coat protein [2] | apparent KD of MS2 coat protein [3] | apparent KD of MS2 coat protein [4]
UUUUAGUCAGGAUAUACAUGAGGAUCACCCAUGUAAAAUUUUAAUUUAAUUUUAAGGUGUAGAAGGGACAACCC [Ex3 #13] (Eterna round: R97, puzzle: Exclusion 3) | 26.6 nM | 32.6 nM | – | – | – | –
CUAACAUGCUGGUGAUCAUACAUGAGGAUCACCCAUGUAACAAGCUUUUUGCUCGUCUUAUAAGAUUACUAGUAUGU [Stov1/10-A4] (Eterna round: R97, puzzle: Sensor, turn-off variant 1) | 21.4 nM | 21.9 nM | – | – | – | –
UAUAUAUAGUAAGGAUAUGUAAUUAUUCUAUAAACAGAAGGUACUGACAUGAGGAUCACCCAUGUUUUAGUGUGGGCAUGUAGA [JMF's solution 40] (Eterna round: R96, puzzle: Exclusion NG 1) | – | – | 33.8 nM | – | – | –
AAUUAGCUAGGAUAUACAUGAGGAUCACCCAUGUCAGUUACAUGGCCGGGUGUAACGAGUAGAAGGAGCGCCAA [EX3 B.28] (Eterna round: R97, puzzle: Exclusion 3) | 175 nM | 513 nM | – | – | – | –
CUAGAUCUUCGGAUCUAGUACAUGAGGAUCACCCAUGUGACGAGUUUAUGGGUGAACAAGCUUUUUGCUCGUCUUAU [Sensor v3 - Turn-off variant 1 - 7] (puzzle: Sensor v3, turn-off variant 1) | – | – | – | 71.4 nM | 16.5 nM | 84.8 nM
ACAUGAGGAUCACCCAUGUUUUUUGGGUACUCUUGUUUCUGCAAGGAUAUGCAUUAUUUAUGUACGCAGAAGGUGCAUUACGUC [JR_ExcNG3_Sub062] (Eterna round: R96, puzzle: Exclusion NG 3) | 696 nM | 962 nM | 692 nM | – | – | –
UUUAGUUUAGGAUAUGUAGAUUUUAACAUGAGGAUCACCCAUGUAGAUCCUGAAUUAACUACAGAAGGAAACAUUU [Mod of Brourd 13 - Jieux - Exclusion 5] (Eterna round: R97, puzzle: Exclusion 5) | 514 nM | 123 nM | – | – | – | –
UGUUGUUGAUAGGAUAUACAGGUAGGAGUAGGAGUAGAAGGAUCUACAUGAGGAUCACCCAUGUAGGAGUGAGA [JR_E6_Sub002] (puzzle: Exclusion 6) | – | – | – | – | 14.9 nM | –
CAUCUGUGAGGAUAUGGUGAGUAGUGCCUGAGCGCUGCUCACCAGAAGGCACAUGAGGAUCACCCAUGUAUGAC [JL-ex4-2.01 denovo] (puzzle: Exclusion 4) | – | – | – | – | 43.7 nM | –
UAAUUUUUAGUAAGGAUAUCGGUCCCAAGGGACAACGAGAAGGUACAUGAGGAUCACCCAUGUGAAAUAAGAAU [Mod of Zala 4 - Jieux - Brourd's Mod of Exclusion 4] (Eterna round: R97, puzzle: Brourd's mod of Exclusion 4) | 27.9 nM | 17.3 nM | – | – | – | –
CCAUGUCCAGAGGAUAUGUAGCGGAUAAACGCAACAGAAGGCUGGACAUGAGGAUCACCCAUGUGCGCCUUCCA [Letion] (Eterna round: R97, puzzle: Exclusion 6) | 35.7 nM | 106 nM | – | – | – | –
AGCUGUGGCCGAGGAUAUCUACAUGAGGAUCACCCAUGUGGGUGAAAUAUCGGGAAAACCUCGAUGGAGAAGGCGGUCUCAGCA [Eli eng2 - 046] (Eterna round: R96, puzzle: Exclusion NG 2) | 849 nM | 263 nM | 234 nM | – | – | –
CUCCGGCGUGUAGGAUAUGGUUCCGUUUCGGUUCCAGAAGGACAUGAGGAUCACCCAUGUGCCUGUCGUCGGUCGUCACCGGGC [salish99_ExNG1_r04_217] (Eterna round: R96, puzzle: Exclusion NG 1) | 17.8 nM | 15.4 nM | 10.3 nM | – | – | –
UUUUAGAGAGGAUAUAUUAUGUGAAACAUGAGGAUCACCCAUGUAAUAUAAUGGAUGUAAAUAGAAGGCUCAUUUA [Mat - Exclusion 5 - JL mod - D22] (puzzle: Exclusion 5) | – | – | – | 28.4 nM | 28.4 nM | 41.1 nM
CAGUACUGAGGAUAUACAUGAGGAUCACCCAUGUGUUCCUGCUAGGAAACUAGCAAAGGUAGAAGGCAGUACUG [Salish 065 m3] (Eterna round: R97, puzzle: Exclusion 3) | 464 nM | 27.9 nM | – | – | – | –
AUUAUAUAGCAAGGAUAUAGAAUAUUAUUUUAACAUGAGGAUCACCCAUGUAACCUUAUGUGUAGCUAGAAGGUGCAUUUAUUA [Title] (Eterna round: R96, puzzle: Exclusion NG 2) | – | – | 64.1 nM | – | – | –
AAUAACAGAGGAUAUACUGUUUUAUGUGUUUGUUAUUUUGAACAUGAGGAUCACCCAUGUAGAAGGCUGAGUAA [JMF 37] (puzzle: Exclusion 2) | – | – | – | – | 23.6 nM | –
AUGAGGUUAGGAUAUACAUGAGGAUCACCCAUGUUGAAAGGAUAGAUAAGAAAAGAUAGUAGAAGGAACAAAGA [JR_Exclu3_Sub052] (puzzle: Exclusion 3) | – | – | – | 34.4 nM | 34.9 nM | 39.2 nM
GGGAUGUCAGGAUAUCCGAAAGUCUACCAAUACGGCAGACAGGAGAAGGGACAUGAGGAUCACCCAUGUAAAGA [Quatma] (puzzle: Exclusion 4) | – | – | – | 114 nM | 36.7 nM | 52.4 nM
ACUAGCUUUUUGCAUAGUAGGUUUGGUGCUUCGUAUGCAACAUGAGGAUCACCCAUGUAUUACUGAUGUCGUCGUUU [JR_SV3TOV2_Sub092] (puzzle: Sensor v3, turn-off variant 2) | – | – | – | 26.2 nM | 48.2 nM | 27.8 nM
AGUAACUAUCACGAAAGUGAUAGUUACAAAACAAGUGAAACAUGAGGAUCACCCAUGUCCUCAUUUGCUCGUCUUAU [Sensor 3 - 2] (puzzle: Sensor v3, turn-off variant 2) | – | – | – | 118 nM | 257 nM | 189 nM
UUAUUUAGGUAGGAUAUCGAUACCAAUUACUAUCGAGAAGGGUCUACAUGAGGAUCACCCAUGUUAGCAUGUUU [LRO-Excl6-12-Rocketman] (Eterna round: R97, puzzle: Exclusion 6) | 26.4 nM | 24.9 nM | – | – | – | –
GACAGGGCAGGAUAUCGAGAUCCGCACAUGAGGAUCACCCAUGUUCGGUCGAAAGACCGACGAGAAGGGCCGUGUC [Omei Ex5 E5] (Eterna round: R97, puzzle: Exclusion 5) | 651 nM | 869 nM | – | – | – | –
UAAAAUUUAGGAUAUGCGUGAGAUAGAGUACGAUGAGCUGCACAUGAGGAUCACCCAUGUAGAAGGAAAUUUUA [-11, -8.6 kcal, 36% A] (Eterna round: R97, puzzle: Exclusion 2) | 58 nM | 31.2 nM | – | – | – | –
CUUUAGACAGGAUAUACUUCCGUGGUCGUAGAGUUACACAGACAUGAGGAUCACCCAUGUAGAAGGGUCAAGCU [Eternabot (L2) Solution 94] (Eterna round: R97, puzzle: Exclusion 2) | 76.2 nM | 84.7 nM | – | – | – | –
ACAUGAGGAUCACCCAUGUCCGGCUGGUCCGUCUCGGCUGUCGAGGAUAUGGCUCGGUGUCCGCGCUAGAAGGCGGGAGCCGGA [Aenatbe mod 76] (Eterna round: R96, puzzle: Exclusion NG 3) | 31.6 nM | 45.4 nM | 27.2 nM | – | – | –
